Measured values from patent US20240309103A1 (Regeneron, published 2024).

Key:
[1] = molecular target: T1, hNPR1-mFc:hANP or hNPR1-hFc:hANP complex (human, UniProt P01160 124-151); test: SPR, mAb captured, 25C
T1 construct: also called human NPR1 complexed to ANP
Procedure: (§1) Equilibrium dissociation constant (KD) for different NPR1 reagents binding to purified anti-NPR1 monoclonal antibodies (mAbs) were determined using a real-time surface plasmon resonance based Biacore 4000 biosensor. All binding studies were performed in 10 mM HEPES, 150 mM NaCl, 3 mM EDTA, and 0.05% v/v Surfactant Tween-20, pH 7.4 (HBS-ET) running buffer at 25° C. and 37° C. The Biacore CM5 sensor chip surface was first derivatized by amine coupling with either mouse anti-human Fc specific mAb (GE Healthcare, #BR100839) or goat anti-human Fcy specific polyclonal antibody (Jackson ImmunoResearch Laboratories, #BR-1008-39) to capture anti-NPR1 mAbs.

hNPR1-mFc:hBNP complex [2] = molecular target: T2, hNPR1-mFc:hBNP complex (human, UniProt P16860 103-134); test: SPR, mAb captured, 25C
T2 construct: also called human NPR1 complexed to BNP
Procedure: as §1

mfNPR1-mFc:hANP complex [3] = molecular target: T3, mfNPR1-mFc:hANP complex (monkey; human, UniProt P01160 124-151); test: SPR, mAb captured, 25C
T3 construct: also called monkey NPR1 complexed to ANP
Procedure: as §1

mfNPR1-mFc:hBNP complex = molecular target: T4, mfNPR1-mFc:hBNP complex (monkey; human, UniProt P16860 103-134); test: SPR, mAb captured, 25C
T4 construct: also called monkey NPR1 complexed to BNP
Procedure: as §1

[4] = molecular target: T1, hNPR1-mFc:hANP or hNPR1-hFc:hANP complex; test: SPR, mAb captured, 37C
Procedure: as §1

hNPR1-mFc:hBNP complex [5] = molecular target: T2, hNPR1-mFc:hBNP complex; test: SPR, mAb captured, 37C
Procedure: as §1

mfNPR1-mFc:hANP complex [6] = molecular target: T3, mfNPR1-mFc:hANP complex; test: SPR, mAb captured, 37C
Procedure: as §1

mfNPR1-mFc [7] = molecular target: T5, mfNPR1-mFc (monkey); test: SPR, mAb captured, 25C
T5 construct: also called dimeric monkey NPR1
T5 chain: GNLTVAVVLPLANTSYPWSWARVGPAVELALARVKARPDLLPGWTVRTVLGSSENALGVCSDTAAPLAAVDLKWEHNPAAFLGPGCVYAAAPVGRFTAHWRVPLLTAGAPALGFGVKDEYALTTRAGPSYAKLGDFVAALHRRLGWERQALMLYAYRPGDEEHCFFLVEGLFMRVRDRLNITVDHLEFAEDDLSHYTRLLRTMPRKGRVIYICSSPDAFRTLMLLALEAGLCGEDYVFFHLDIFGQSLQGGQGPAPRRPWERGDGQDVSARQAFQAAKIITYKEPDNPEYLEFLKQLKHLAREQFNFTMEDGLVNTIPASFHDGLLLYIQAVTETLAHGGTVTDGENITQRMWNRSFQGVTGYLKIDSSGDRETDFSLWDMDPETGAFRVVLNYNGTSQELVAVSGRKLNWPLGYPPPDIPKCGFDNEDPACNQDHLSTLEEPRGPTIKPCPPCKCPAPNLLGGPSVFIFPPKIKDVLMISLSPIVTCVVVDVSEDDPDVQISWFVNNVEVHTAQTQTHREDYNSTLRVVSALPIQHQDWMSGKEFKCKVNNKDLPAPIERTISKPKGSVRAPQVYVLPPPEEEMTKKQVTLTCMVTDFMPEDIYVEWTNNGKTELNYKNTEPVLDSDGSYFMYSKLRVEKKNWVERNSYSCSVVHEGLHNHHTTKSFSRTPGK
Procedure: as §1

mfNPR1-mFc [8] = molecular target: T5, mfNPR1-mFc; test: SPR, mAb captured, 37C
Procedure: as §1

B1: mAb22805 (antibody, human IgG4, V domains shown)
VH: QVQLVESGGGVVQPGRSLRLSCAASGFTFSTYGMHWVRQAPGKGLEWVALIWNDGSNKYYADSVKGRFTISRDNSKNTLDLQMNSLRAEDTAVYYCARLNTRITGTTNLDYWGQGTLVTVSS
VL: DIQMTQSPSSLSASVGDRVTVSCRASQSIANYLNWYQQKPGKAPNLLIYGAYTLQSGVPSRFRGSGSGTDFTLTISSLQPEDFATYYCQQTYSTPPITFGQGTRLEIK
B1 was tested, and the “100 nM Ag Bound (RU)” value [1] was 84 RU, the Kd [1] was 3.28 nM and the koff [1] was 0.000141 s⁻¹. For the same binder, the kon [1] was 43100 M⁻¹ s⁻¹, the t½ [1] was 1.36 h and the “100 nM Ag Bound (RU)” value (hNPR1-mFc:hBNP complex [2]) was 84 RU. The Kd (hNPR1-mFc:hBNP complex [2]) was 3.68 nM, the koff (hNPR1-mFc:hBNP complex [2]) was 0.000152 s⁻¹ and the kon (hNPR1-mFc:hBNP complex [2]) was 41400 M⁻¹ s⁻¹. For the same binder, the t½ (hNPR1-mFc:hBNP complex [2]) was 1.26 h, the “100 nM Ag Bound (RU)” value (mfNPR1-mFc:hANP complex [3]) was 116 RU and the Kd (mfNPR1-mFc:hANP complex [3]) was 1.96 nM. It also gave a koff (mfNPR1-mFc:hANP complex [3]) of 9.51e-05 s⁻¹, a kon (mfNPR1-mFc:hANP complex [3]) of 48400 M⁻¹ s⁻¹ and a t½ (mfNPR1-mFc:hANP complex [3]) of 2.02 h. The “100 nM Ag Bound (RU)” value (mfNPR1-mFc:hBNP complex) was 113 RU, the Kd (mfNPR1-mFc:hBNP complex) was 2.12 nM and the koff (mfNPR1-mFc:hBNP complex) was 9.6e-05 s⁻¹. The kon (mfNPR1-mFc:hBNP complex) was 45300 M⁻¹ s⁻¹, the t½ (mfNPR1-mFc:hBNP complex) was 2.01 h and the “100 nM Ag Bound (RU)” value [4] was 113 RU. The Kd [4] was 4.91 nM, the koff [4] was 0.000295 s⁻¹ and the kon [4] was 60100 M⁻¹ s⁻¹. The t½ [4] was 0.653 h, the “100 nM Ag Bound (RU)” value (hNPR1-mFc:hBNP complex [5]) was 112 RU and the Kd (hNPR1-mFc:hBNP complex [5]) was 6.02 nM. It also gave a koff (hNPR1-mFc:hBNP complex [5]) of 0.000313 s⁻¹, a kon (hNPR1-mFc:hBNP complex [5]) of 52000 M⁻¹ s⁻¹ and a t½ (hNPR1-mFc:hBNP complex [5]) of 0.615 h. For the same binder, the “100 nM Ag Bound (RU)” value (mfNPR1-mFc:hANP complex [6]) was 153 RU, the Kd (mfNPR1-mFc:hANP complex [6]) was 3.3 nM and the koff (mfNPR1-mFc:hANP complex [6]) was 0.000209 s⁻¹. For the same binder, the kon (mfNPR1-mFc:hANP complex [6]) was 63300 M⁻¹ s⁻¹ and the t½ (mfNPR1-mFc:hANP complex [6]) was 0.922 h.

B2: mAb22033 (antibody, human IgG4, V domains shown)
VH: QVQLVQSGAEVKKPGASVTVSCKASGYTFTDYYMHWVRQAPGQGLEWMGWIKPNSGGTNSAQRFQGRITMTWDTSISTAYMELSRLRSDDTAVYYCSRGGPVMNYYYYYGMDVWGQGTTVTVSS
VL: NIQMTQSPSSLSASVGDRVTITCRASQSIDSYLNWYQQKPGKAPKLLIYVASSLQSGVPSRFSGSGSGKDFTLTISSLQPEDFATYYCQQSYSIPTFGQGTRLEIK
In the case of B2, the “100 nM Ag Bound (RU)” value [1] is reported as 84 RU, the Kd [1] is reported as 1.43 nM and the koff [1] is reported as 8.6e-05 s⁻¹. For the same binder, the kon [1] was 60300 M⁻¹ s⁻¹, the t½ [1] was 2.24 h and the “100 nM Ag Bound (RU)” value (hNPR1-mFc:hBNP complex [2]) was 85 RU. It also gave a Kd (hNPR1-mFc:hBNP complex [2]) of 1.23 nM, a koff (hNPR1-mFc:hBNP complex [2]) of 6.67e-05 s⁻¹ and a kon (hNPR1-mFc:hBNP complex [2]) of 54300 M⁻¹ s⁻¹. The t½ (hNPR1-mFc:hBNP complex [2]) was 2.89 h, the “100 nM Ag Bound (RU)” value (mfNPR1-mFc [7]) was 96 RU and the Kd (mfNPR1-mFc [7]) was 0.938 nM. For the same binder, the koff (mfNPR1-mFc [7]) was 4.85e-05 s⁻¹, the kon (mfNPR1-mFc [7]) was 51700 M⁻¹ s⁻¹ and the t½ (mfNPR1-mFc [7]) was 3.97 h. The “100 nM Ag Bound (RU)” value (mfNPR1-mFc:hANP complex [3]) was 133 RU, the Kd (mfNPR1-mFc:hANP complex [3]) was 0.815 nM and the koff (mfNPR1-mFc:hANP complex [3]) was 5.36e-05 s⁻¹. The kon (mfNPR1-mFc:hANP complex [3]) was 65800 M⁻¹ s⁻¹, the t½ (mfNPR1-mFc:hANP complex [3]) was 3.59 h and the “100 nM Ag Bound (RU)” value (mfNPR1-mFc:hBNP complex) was 132 RU. It also gave a Kd (mfNPR1-mFc:hBNP complex) of 0.781 nM, a koff (mfNPR1-mFc:hBNP complex) of 5.15e-05 s⁻¹ and a kon (mfNPR1-mFc:hBNP complex) of 65900 M⁻¹ s⁻¹. The t½ (mfNPR1-mFc:hBNP complex) was 3.74 h, the “100 nM Ag Bound (RU)” value [4] was 108 RU and the Kd [4] was 1.69 nM. For the same binder, the koff [4] was 9.8e-05 s⁻¹, the kon [4] was 57900 M⁻¹ s⁻¹ and the t½ [4] was 1.97 h. For the same binder, the “100 nM Ag Bound (RU)” value (hNPR1-mFc:hBNP complex [5]) was 108 RU, the Kd (hNPR1-mFc:hBNP complex [5]) was 1.79 nM and the koff (hNPR1-mFc:hBNP complex [5]) was 9.6e-05 s⁻¹. For the same binder, the kon (hNPR1-mFc:hBNP complex [5]) was 53700 M⁻¹ s⁻¹, the t½ (hNPR1-mFc:hBNP complex [5]) was 2 h and the “100 nM Ag Bound (RU)” value (mfNPR1-mFc [8]) was 126 RU. The Kd (mfNPR1-mFc [8]) was 2.06 nM, the koff (mfNPR1-mFc [8]) was 9.9e-05 s⁻¹ and the kon (mfNPR1-mFc [8]) was 48200 M⁻¹ s⁻¹. The t½ (mfNPR1-mFc [8]) was 1.95 h, the “100 nM Ag Bound (RU)” value (mfNPR1-mFc:hANP complex [6]) was 169 RU and the Kd (mfNPR1-mFc:hANP complex [6]) was 1.31 nM. The koff (mfNPR1-mFc:hANP complex [6]) was 8.9e-05 s⁻¹, the kon (mfNPR1-mFc:hANP complex [6]) was 68000 M⁻¹ s⁻¹ and the t½ (mfNPR1-mFc:hANP complex [6]) was 2.16 h.

B3: mAb25545 (antibody, human IgG4, V domains shown)
VH: QVQLVESGGGLVKPGGSLRLSCAASGFTFSDYHLSWIRQAPGKGLEWVSYIRSSGRTIDYAASVKGRFTISRDNAKNSLYLQMNSLRVEDTAVYYCARENWIVLKVYAGIVGAPLDQWGQGTLVTVSS
VL: not shown
In the case of B3, the “100 nM Ag Bound (RU)” value [1] is reported as 28 RU, the Kd [1] is reported as 1.98 nM and the koff [1] is reported as 4.63e-05 s⁻¹. The kon [1] was 23400 M⁻¹ s⁻¹, the t½ [1] was 4.16 h and the “100 nM Ag Bound (RU)” value (hNPR1-mFc:hBNP complex [2]) was 27 RU. For the same binder, the Kd (hNPR1-mFc:hBNP complex [2]) was 2.72 nM, the koff (hNPR1-mFc:hBNP complex [2]) was 6.26e-05 s⁻¹ and the kon (hNPR1-mFc:hBNP complex [2]) was 23000 M⁻¹ s⁻¹. The t½ (hNPR1-mFc:hBNP complex [2]) was 3.08 h, the “100 nM Ag Bound (RU)” value (mfNPR1-mFc:hANP complex [3]) was 45 RU and the Kd (mfNPR1-mFc:hANP complex [3]) was 2.35 nM. For the same binder, the koff (mfNPR1-mFc:hANP complex [3]) was 5.37e-05 s⁻¹, the kon (mfNPR1-mFc:hANP complex [3]) was 22800 M⁻¹ s⁻¹ and the t½ (mfNPR1-mFc:hANP complex [3]) was 3.58 h. The “100 nM Ag Bound (RU)” value (mfNPR1-mFc:hBNP complex) was 42 RU, the Kd (mfNPR1-mFc:hBNP complex) was 2.08 nM and the koff (mfNPR1-mFc:hBNP complex) was 4.97e-05 s⁻¹. The kon (mfNPR1-mFc:hBNP complex) was 23900 M⁻¹ s⁻¹, the t½ (mfNPR1-mFc:hBNP complex) was 3.88 h and the “100 nM Ag Bound (RU)” value [4] was 58 RU. For the same binder, the Kd [4] was 2.35 nM, the koff [4] was 8.61e-05 s⁻¹ and the kon [4] was 36700 M⁻¹ s⁻¹. For the same binder, the t½ [4] was 2.24 h, the “100 nM Ag Bound (RU)” value (hNPR1-mFc:hBNP complex [5]) was 56 RU and the Kd (hNPR1-mFc:hBNP complex [5]) was 2.85 nM. It also gave a koff (hNPR1-mFc:hBNP complex [5]) of 9.84e-05 s⁻¹, a kon (hNPR1-mFc:hBNP complex [5]) of 34600 M⁻¹ s⁻¹ and a t½ (hNPR1-mFc:hBNP complex [5]) of 1.95 h. The “100 nM Ag Bound (RU)” value (mfNPR1-mFc [8]) was 26 RU, the Kd (mfNPR1-mFc [8]) was 2.62 nM and the koff (mfNPR1-mFc [8]) was 0.000144 s⁻¹. For the same binder, the kon (mfNPR1-mFc [8]) was 55100 M⁻¹ s⁻¹, the t½ (mfNPR1-mFc [8]) was 1.33 h and the “100 nM Ag Bound (RU)” value (mfNPR1-mFc:hANP complex [6]) was 86 RU. The Kd (mfNPR1-mFc:hANP complex [6]) was 2.04 nM, the koff (mfNPR1-mFc:hANP complex [6]) was 8.18e-05 s⁻¹ and the kon (mfNPR1-mFc:hANP complex [6]) was 40100 M⁻¹ s⁻¹. For the same binder, the t½ (mfNPR1-mFc:hANP complex [6]) was 2.35 h.
